Source: article PMC9638894, “Anti-CRISPR proteins function through thermodynamic tuning and allosteric regulation of CRISPR RNA-guided surveillance complex” (Nucleic Acids Research, 2022)

Target: T1, type IF CRISPR RNA guided surveillance complex (Csy) (UniProt Q02MM2 1-187)
T1 construct: Cas8f subunit (tail) of the type IF Csy complex; Csy1); Cas5 subunit (tail) of the type IF Csy complex; Csy2); Cas7 subunit (backbone, six copies Cas7.1f-Cas7.6f) of the type IF Csy complex; Csy3); Cas6f subunit (head) of the type IF Csy complex; Csy4); Ribonucleoprotein: also holds one crRNA (synthetic CRISPR, Addgene 89244); Purified on Ni-NTA, so one subunit carries a His tag; also called Csy …
Assay: ITC; AcrIF9 or AcrIF2 binding to the Csy complex; conditions not told in the text shown (Supplemental Figure S8)
Conditions: both partners purified

B1: AcrIF9 (natural protein)
chain: MKAAYIIKEVQNINSEREGTQIEATSLSQAKRIASKEQCFHGTVMRIETVNGLWLAYKEDGKRWVDCQ
dH: > 0
